Measured values published in the Immune Epitope Database (IEDB).

Columns and labels:
[1] = target: HLA-B*39:01; test: IEDB peptide-MHC binding, purified MHC/competitive/fluorescence; filed as Kd, often an IC50 or EC50 that approximates it; ≥ and ≤ were set here for values at or beyond the usual limits of such assays
[2] = target: HLA-B*58:01; test: IEDB peptide-MHC binding, purified MHC/direct/fluorescence; filed as Kd, often an IC50 or EC50 that approximates it; ≥ and ≤ were set here for values at or beyond the usual limits of such assays
[3] = target: HLA-B*18:01; test: as above
[4] = target: HLA-A*31:01; test: as above
[5] = target: HLA-B*15:01; test: as above
[6] = target: HLA-B*40:01; test: as above
[7] = target: HLA-A*69:01; test: as above
[8] = target: HLA-A*01:01; test: as above
[9] = target: HLA-A*02:01; test: as above
[10] = target: HLA-B*27:05; test: as above
[11] = target: HLA-B*57:01; test: as above
[12] = target: HLA-B*07:02; test: as above
[13] = target: HLA-B*15:09; test: as above
[14] = target: HLA-B*44:02; test: as above
[15] = target: HLA-A*03:01; test: as above
[16] = target: HLA-B*46:01; test: as above
[17] = target: HLA-A*02:11; test: IEDB peptide-MHC binding, purified MHC/competitive/fluorescence; filed as Kd, often an IC50 or EC50 that approximates it; ≥ and ≤ were set here for values at or beyond the usual limits of such assays
[18] = target: HLA-B*18:01; test: as above
[19] = target: HLA-A*29:02; test: as above; conditions: source organism: Entamoeba histolytica HM-1:IMSS
[20] = target: HLA-A*26:01; test: as above
[21] = target: HLA-B*57:01; test: as above
[22] = target: HLA-A*02:19; test: as above
[23] = target: HLA-B*27:03; test: as above
[24] = target: HLA-A*03:01; test: as above
[25] = target: HLA-B*46:01; test: as above
[26] = target: HLA-B*58:01; test: as above
[27] = target: HLA-A*01:01; test: as above
[28] = target: HLA-A*11:01; test: IEDB peptide-MHC binding, purified MHC/direct/fluorescence; filed as Kd, often an IC50 or EC50 that approximates it; ≥ and ≤ were set here for values at or beyond the usual limits of such assays
[29] = target: HLA-B*08:02; test: as above
[30] = target: HLA-A*26:01; test: as above
[31] = target: HLA-B*08:01; test: as above
[32] = target: HLA-C*03:03; test: as above
[33] = target: HLA-A*69:01; test: IEDB peptide-MHC binding, purified MHC/competitive/fluorescence; filed as Kd, often an IC50 or EC50 that approximates it; ≥ and ≤ were set here for values at or beyond the usual limits of such assays; conditions: source organism: Human immunodeficiency virus 1
[34] = target: HLA-A*02:01; test: as above
[35] = target: HLA-A*02:03; test: as above
[36] = target: HLA-C*05:01; test: IEDB peptide-MHC binding, purified MHC/direct/fluorescence; filed as Kd, often an IC50 or EC50 that approximates it; ≥ and ≤ were set here for values at or beyond the usual limits of such assays
[37] = target: HLA-A*29:02; test: as above; conditions: source organism: West Nile virus
[38] = target: HLA-B*39:01; test: as above
[39] = target: HLA-B*48:01; test: as above
[40] = target: HLA-A*02:12; test: IEDB peptide-MHC binding, purified MHC/competitive/fluorescence; filed as Kd, often an IC50 or EC50 that approximates it; ≥ and ≤ were set here for values at or beyond the usual limits of such assays; conditions: source organism: Vibrio parahaemolyticus AQ3810
[41] = target: HLA-B*15:17; test: IEDB peptide-MHC binding, purified MHC/direct/fluorescence; filed as Kd, often an IC50 or EC50 that approximates it; ≥ and ≤ were set here for values at or beyond the usual limits of such assays; conditions: source organism: Camelpox virus M-96
[42] = target: HLA-A*68:02; test: as above; conditions: source organism: Camelpox virus M-96
[43] = source organism: West Nile virus
[44] = source organism: West Nile virus strain PTRoxo
[45] = source organism: Entamoeba histolytica HM-1:IMSS
[46] = source organism: Yersinia pestis Nepal516
[47] = source organism: Burkholderia mallei
[48] = source organism: Burkholderia mallei ATCC 23344
[49] = source organism: Human immunodeficiency virus 1
[50] = source organism: Bacillus thuringiensis str. Al Hakam
[51] = source organism: Vibrio parahaemolyticus AQ3810
[52] = source organism: Camelpox virus M-96
[53] = source organism: Salmonella enterica subsp. enterica serovar Typhi

GHGTVVLEL
Kd ([1]; source organism: Murray Valley encephalitis virus): 0.0067 µM | Kd [2, 43]: ≥ 20 µM | Kd [3, 43]: ≥ 20 µM | Kd [4, 43]: ≥ 20 µM | Kd [5, 43]: ≥ 20 µM | Kd [6, 43]: ≥ 20 µM | Kd [7, 43]: ≥ 20 µM | Kd [8, 43]: ≥ 20 µM | Kd [9, 43]: ≥ 20 µM | Kd [10, 43]: ≥ 20 µM | Kd [11, 43]: ≥ 20 µM | Kd [12, 43]: ≥ 20 µM | Kd [13, 44]: 4.55 µM | Kd [14, 43]: ≥ 20 µM | Kd [15, 43]: ≥ 20 µM | Kd [16, 43]: ≥ 20 µM

CLSPVVAGL
Kd [17, 45]: ≤ 0.0001 µM | Kd [18, 45]: ≥ 20 µM | Kd [19]: 0.219 µM | Kd [20, 45]: ≥ 20 µM | Kd [21, 45]: ≥ 20 µM | Kd [22, 45]: 0.0008 µM | Kd [23, 45]: ≥ 20 µM | Kd [24, 45]: ≥ 20 µM | Kd [25, 45]: ≥ 20 µM

STIVWSSRY
Kd [26, 46]: 0.17 µM | Kd [27, 46]: 1.4 µM | Kd [24, 46]: 3.5 µM

EARGKEKLL
Kd [2, 47]: ≥ 20 µM | Kd [28, 47]: ≥ 20 µM | Kd [5, 47]: ≥ 20 µM | Kd [6, 47]: ≥ 20 µM | Kd [29, 48]: ≥ 20 µM | Kd [8, 47]: ≥ 20 µM | Kd [9, 47]: ≥ 20 µM | Kd [30, 48]: ≥ 20 µM | Kd [10, 47]: ≥ 20 µM | Kd [12, 47]: ≥ 20 µM | Kd [13, 48]: ≥ 20 µM | Kd [31, 48]: 5.88 µM | Kd [15, 47]: ≥ 20 µM | Kd [16, 47]: ≥ 20 µM

YLVDCGAEL
Kd ([32]; source organism: Mycobacterium tuberculosis str. Haarlem): ≤ 0.001 µM

GLADQLIHI
Kd [17, 49]: 0.0002 µM | Kd [33]: ≥ 20 µM | Kd [34, 49]: 0.0295 µM | Kd [22, 49]: 0.0095 µM | Kd [35, 49]: 0.0012 µM

YSAWGGYNL
Kd [1, 50]: 0.404 µM | Kd [36, 50]: 4.18 µM

ILDTGTIQL
Kd ([36]; source organism: Homo sapiens): 0.019 µM | Kd ([32]; source organism: Homo sapiens): 1.27 µM

TEGEGRVIL
Kd [2, 43]: ≥ 20 µM | Kd [3, 43]: 1.01 µM | Kd [37]: ≥ 20 µM | Kd [28, 43]: ≥ 20 µM | Kd [4, 43]: ≥ 20 µM | Kd [38, 43]: ≥ 20 µM | Kd [5, 43]: ≥ 20 µM | Kd [6, 43]: 0.0459 µM | Kd [7, 43]: ≥ 20 µM | Kd [8, 43]: ≥ 20 µM | Kd [9, 43]: ≥ 20 µM | Kd [10, 43]: ≥ 20 µM | Kd [11, 43]: ≥ 20 µM | Kd [12, 43]: ≥ 20 µM | Kd [13, 44]: ≥ 20 µM | Kd [39, 43]: ≥ 20 µM | Kd [14, 43]: ≥ 20 µM | Kd [15, 43]: ≥ 20 µM | Kd [16, 43]: ≥ 20 µM

SSRGYSAIW
Kd [18, 51]: ≥ 20 µM | Kd [1, 51]: ≥ 20 µM | Kd [20, 51]: ≥ 20 µM | Kd [21, 51]: 0.042 µM | Kd [22, 51]: ≥ 20 µM | Kd [40]: ≥ 20 µM | Kd [35, 51]: ≥ 20 µM | Kd [23, 51]: ≥ 20 µM | Kd [24, 51]: ≥ 20 µM | Kd [25, 51]: ≥ 20 µM

KELENEYYF
Kd ([34]; source organism: Vaccinia virus WR): ≥ 20 µM | Kd [2, 52]: ≥ 20 µM | Kd [3, 52]: 0.0198 µM | Kd [28, 52]: ≥ 20 µM | Kd [4, 52]: ≥ 20 µM | Kd ([38]; source organism: Variola virus): ≥ 20 µM | Kd [6, 52]: 0.0183 µM | Kd [41]: ≥ 20 µM | Kd [7, 52]: ≥ 20 µM | Kd ([29]; source organism: Variola virus): ≥ 20 µM | Kd [8, 52]: ≥ 20 µM | Kd ([30]; source organism: Variola virus): ≥ 20 µM | Kd [10, 52]: ≥ 20 µM | Kd [11, 52]: ≥ 20 µM | Kd [12, 52]: ≥ 20 µM | Kd ([13]; source organism: Variola virus): ≥ 20 µM | Kd [42]: ≥ 20 µM | Kd ([31]; source organism: Variola virus): ≥ 20 µM | Kd [39, 52]: ≥ 20 µM | Kd [14, 52]: ≥ 20 µM

ITSKEVFTY
Kd [26, 53]: 0.0256 µM | Kd [27, 53]: 0.0338 µM | Kd [24, 53]: 2.28 µM
